What all share (format): cell-based, human
In series [1] the test system is mCherry expression in HEK293T cells. Briefly: pCMV/TO repression by rtTA-VPR, mCherry positive cells by flow cytometry (Example 1). The note with it: presence of doxycycline (1000 ng/ml), rtTA-VPR co-transfected. As to the method:
Flow Cytometry. Cells were collected 48 hours after transfection, washed and resuspended with PBS (Euroclone). Flow Cytometry analysis were carried out using an Accuri C6 (BD Biosciences), analyzing 10000 cells for each sample. A 488-nm laser with a 670 nm LP filter were used to excite and detect mCherry fluorescence.
HEK293T cells were transfected with a plasmid encoding the pCMV/TO promoter driving the expression of the fluorescent protein mCherry, and with a plasmid encoding the rtTA-VPR transcription factor driven by the strong constitutive pCMV promoter. A condition treated in the same way but without rtTA-VPR transfection was used as a negative control to account for any doxycycline treatment bias on mCherry expression. The percentage of mCherry positive cells was quantified through flow cytometry analysis in the absence and presence (1000 ng/ml) of doxycycline. The results of this experiment are shown in FIG. 3, where it can be appreciated that pCMV/TO efficiently represses the expression of the mCherry almost 25 times at the transcriptional level in the presence of doxycycline. pCMV/TO is efficiently repressed by the rtTA-VPR in the presence of doxycycline. Percentual mean values of at least three biological replicates are shown. Error bars indicate standard error.

The test system of series [2] is Gaussia luciferase transcript harboring a Direct Repeat in its 3′UTR, HEK293T cells. Briefly: CasRx repression of Gaussia luciferase reporter with or without Direct Repeat (Example 2). The method, then:
Luciferase assay. The cells were collected 48 hours after transfection and lysed with 25 μL of 5×Passive Lysis Buffer ([…]) diluted in water. Firefly Luciferase and Renilla Luciferase expression were measured using the Dual Luciferase Assay (Promega) on a Glomax Explorer plate reader (Promega). Firefly Luciferase Arbitrary Units (fLuc [A.U.]) were calculated by normalizing each sample's Firefly Luciferase activity to the constitutive Renilla activity detected in the same sample. Relative fLuc [A.U.] values have been calculated by dividing each sample's Firefly Luciferase Arbitrary Units by the Firefly Luciferase Arbitrary Units of the sample with no Doxycycline induction, in the case of Doxycycline dose-response curves. […] Luciferase activity was measured using Pierce™ Gaussia-Firefly Luciferase Dual Assay Kit (ThermoFisher Scientific) according to the manufacturer's instructions.
The findings of Example 1 were further confirmed by transfecting HEK293T cells with an increasing molar ratio of a plasmid encoding a Gaussia luciferase reporter gene, with or without Direct Repeats in its 3′UTR and a plasmid encoding the CasRx endoribonuclease. […] At least, three biological replicates were analyzed for each condition. Relative gLuc A.U. is calculated as the ratio between the gLuc A.U. values obtained transfecting the CasRx against the one which wasn't; this last corresponds to 1 gLuc A.U.
A general note: A reporter such as luciferase makes a cellular process visible.

Series [3] has as its system Gaussia Luciferase (gLuc) transcripts in HEK293 cells. Briefly: Mutual inhibition CasRx / gLuc transcripts with no, one or four DR (Example 13). The method, then: In order to confirm the mechanism of inhibition mediated by the output species “Z” on the repressor species “Y” in genetic circuits according to preferred embodiments of the invention, HEK293 cells were co-transfected with CasRx endoribonuclease (species Y) and Gaussia Luciferase (gLuc) transcripts, the latter bearing in the 3′UTR either no Direct Repeat (DR), one DR, or four tandem DR motifs (4×DRs). The hypothesis tested was that upon CasRx binding, only one DR motifs would effectively contribute to transcript cleavage and subsequent degradation. Therefore, in transcripts bearing multiple DR motifs, the remaining DR motifs, not contributing to transcript cleavage, would act as decoys, sequestering active CasRx from the unbound pool. As a result, the CasRx repression efficacy on gLuc expression should decrease.
The luciferase emission of each sample was measured to quantify the expression of the gLuc at increasing amounts of co-transfected plasmid encoding the CasRx. […] (FIG. 25). Increasing the amount of DR copies in the 3′UTR thus enhances the “sponge” effect, inhibiting the cleavage efficacy of CasRx.

The subject of series [4] is Firefly Luciferase driven by CMV/2B promoter in HEK293T cells. Briefly: CMV/2B promoter repression by VPR-dCas9-N8 and gRNA_B, Luc assay (Example 12). As to conditions: VPR-dCas9-N8 with gRNA_B vs scramble gRNA_AB. As to the method: Luciferase assay. The cells were collected 48 hours after transfection and lysed with 25 μL of 5×Passive Lysis Buffer ([…]) diluted in water. Firefly Luciferase and Renilla Luciferase expression were measured using the Dual Luciferase Assay (Promega) on a Glomax Explorer plate reader (Promega). Firefly Luciferase Arbitrary Units (fLuc [A.U.]) were calculated by normalizing each sample's Firefly Luciferase activity to the constitutive Renilla activity detected in the same sample. Relative fLuc [A.U.] values have been calculated by dividing each sample's Firefly Luciferase Arbitrary Units by the Firefly Luciferase Arbitrary Units of the sample with no Doxycycline induction, in the case of Doxycycline dose-response curves. In the case of Shield1 treatment, Relative fLuc [A.U.] values have been obtained by dividing each sample's Firefly Luciferase Arbitrary Units by the Firefly Luciferase Arbitrary Units of the sample treated with the maximum dose of Shield1 used, 1000 nM. Regarding experiments comprising Gaussia Luciferase and RedFireFly Luciferase, cells expressing those luciferases were harvested 48 h after transfection. Cells were disrupted with 100 μL/well of 1×Cell Lysis buffer and shaken for 15 min. Luciferase activity was measured using Pierce™ Gaussia-Firefly Luciferase Dual Assay Kit (ThermoFisher Scientific) according to the manufacturer's instructions. […]

B1: pCMV/TO: modified CMV promoter bearing two Tetracycline Operon (TO) sequences, SEQ ID NO: 8 (nucleic acid)
DNA: CGTTACATAACTTACGGTAAATGGCCCGCCTGGCTGACCGCCCAACGACCCCCGCCCATTGACGTCAATAATGACGTATGTTCCCATAGTAACGCCAATAGGGACTTTCCATTGACGTCAATGGGTGGAGTATTTACGGTAAACTGCCCACTTGGCAGTACATCAAGTGTATCATATGCCAAGTACGCCCCCTATTGACGTCAATGACGGTAAATGGCCCGCCTGGCATTATGCCCAGTACATGACCTTATGGGACTTTCCTACTTGGCAGTACATCTACGTATTAGTCATCGCTATTACCATGGTGATGCGGTTTTGGCAGTACATCAATGGGCGTGGATAGCGGTTTGACTCACGGGGATTTCCAAGTCTCCACCCCATTGACGTCAATGGGAGTTTGTTTTGGCACCAAAATCAACGGGACTTTCCAAAATGTCGTAACAACTCCGCCCCATTGACGCAAATGGGCGGTAGGCGTGTACGGTGGGAGGTCTATATAAGCAGAGCTCTCCCTATCAGTGATAGAGATCTCCCTATCAGTGATAGAGA
Turning to B1, the “repression of mCherry expression” value in series [1] is given as ~25 times.

B2: CasRx: CRISPR-Cas RNase derived from Ruminococcus flavefaciens, SEQ ID NO: 2 (protein)
chain: IEKKKSFAKGMGVKSTLVSGSKVYMTTFAEGSDARLEKIVEGDSIRSVNEGEAFSAEMADKNAGYKIGNAKFSHPKGYAVVANNPLYTGPVQQDMLGLKETLEKRYFGESADGNDNICIQVIHNILDIEKILAEYITNAAYAVNNISGLDKDIIGFGKFSTVYTYDEFKDPEHHRAAFNNNDKLINAIKAQYDEFDNFLDNPRLGYFGQAFFSKEGRNYIINYGNECYDILALLSGLRHWVVHNNEEESRISRTWLYNLDKNLDNEYISTLNYLYDRITNELTNSFSKNSAANVNYIAETLGINPAEFAEQYFRFSIMKEQKNLGFNITKLREVMLDRKDMSEIRKNHKVFDSIRTKVYTMMDFVIYRYYIEEDAKVAAANKSLPDNEKSLSEKDIFVINLRGSFNDDQKDALYYDEANRIWRKLENIMHNIKEFRGNKTREYKKKDAPRLPRILPAGRDVSAFSKLMYALTMFLDGKEINDLLTTLINKFDNIQSFLKVMPLIGVNAKFVEEYAFFKDSAKIADELRLIKSFARMGEPIADARRAMYIDAIRILGTNLSYDELKALADTFSLDENGNKLKKGKHGMRNFIINNVISNKRFHYLIRYGDPAHLHEIAKNEAVVKFVLGRIADIQKKQGQNGKNQIDRYYETCIGKDKGKSVSEKVDALTKIITGMNYDQFDKKRSVIEDTGRENAEREKFKKIISLYLTVIYHILKNIVNINARYVIGFHCVERDAQLYKEKGYDINLKKLEEKGFSSVTKLCAGIDETAPDKRKDVEKEMAERAKESIDSLESANPKLYANYIKYSDEKKAEEFTRQINREKAKTALNAYLRNTKWNVIIREDLLRIDNKTCTLFRNKAVHLEVARYVHAYINDIAEVNSYFQLYHYIMQRIIMNERYEKSSGKVSEYFDAVNDEKKYNDRLLKLLCVPFGYCIPRFKNLSIEALFDRNEAAKFDKEKKKVSGNS
In the case of B2, the “post-transcriptional inhibition of luciferase expression” value in series [2] (10 times molar excess of CasRx) is ~200 folds. Also, the “expression of Gaussia luciferase with DR in 3′UTR” value in series [2] (equimolar amount of plasmid encoding CasRx, relative to no CasRx) stood at 5%. For the same molecule, the “decrease of gLuc expression” value in series [3] (transcript having one DR, increasing amount of co-transfected CasRx) is listed as ~2 log. Besides, the luciferase values entry in series [3] (transcript with 4×DRs, presence of CasRx) was “higher luciferase values in the presence of CasRx compared to a single DR”.

B3: CMV/2B: CMV promoter with gRNA_B binding sites downstream of the TATA box, repressed by VPR-dCas9-N8, SEQ ID NO: 48 (nucleic acid)
DNA: CGTTACATAACTTACGGTAAATGGCCCGCCTGGCTGACCGCCCAACGACCCCCGCCCATTGACGTCAATAATGACGTATGTTCCCATAGTAACGCCAATAGGGACTTTCCATTGACGTCAATGGGTGGAGTATTTACGGTAAACTGCCCACTTGGCAGTACATCAAGTGTATCATATGCCAAGTACGCCCCCTATTGACGTCAATGACGGTAAATGGCCCGCCTGGCATTATGCCCAGTACATGACCTTATGGGACTTTCCTACTTGGCAGTACATCTACGTATTAGTCATCGCTATTACCATGGTGATGCGGTTTTGGCAGTACATCAATGGGCGTGGATAGCGGTTTGACTCACGGGGATTTCCAAGTCTCCACCCCATTGACGTCAATGGGAGTTTGTTTTGGCACCAAAATCAACGGGACTTTCCAAAATGTCGTAACAACTCCGCCCCATTGACGCAAATGGGCGGTAGGCGTGTACGGTGGGAGGTCTATATAAGCAGAGCTGCCGTCTTCCGTTTCCACATCTTCACGGATACCAAGGTGGCACCGGTTTGATTGCACAGCCCGTCTTCCGTTTCCACATCTTCACGG
Consider B3, for which the “percentage of repression of the CMV/2B” value in series [4] was “around 60%”.

The values above are taken from patent US20260022396A1, “GENETIC CIRCUITS” (FONDAZIONE TELETHON ETS, priority 2022, published 2026).
